Laboratory results taken from paper PMC4598300.

Target: tag-free PTEN (human) (UniProt P60484)
Test: SEC-SAXS

stoichiometry N: 2
Substance: tag-free PTEN, P60484 1-403 (enzyme; other documents disagree on this pair)
